Patent US20250297003A1

Biological target: sialic acid-binding immunoglobulin-like lectin-9 (Siglec-9), human, on mast cells (human) (UniProt Q9Y336)
Assay: cell-based or functional assay

UniProt Q9Y336, sequence (Q9Y336 18-463): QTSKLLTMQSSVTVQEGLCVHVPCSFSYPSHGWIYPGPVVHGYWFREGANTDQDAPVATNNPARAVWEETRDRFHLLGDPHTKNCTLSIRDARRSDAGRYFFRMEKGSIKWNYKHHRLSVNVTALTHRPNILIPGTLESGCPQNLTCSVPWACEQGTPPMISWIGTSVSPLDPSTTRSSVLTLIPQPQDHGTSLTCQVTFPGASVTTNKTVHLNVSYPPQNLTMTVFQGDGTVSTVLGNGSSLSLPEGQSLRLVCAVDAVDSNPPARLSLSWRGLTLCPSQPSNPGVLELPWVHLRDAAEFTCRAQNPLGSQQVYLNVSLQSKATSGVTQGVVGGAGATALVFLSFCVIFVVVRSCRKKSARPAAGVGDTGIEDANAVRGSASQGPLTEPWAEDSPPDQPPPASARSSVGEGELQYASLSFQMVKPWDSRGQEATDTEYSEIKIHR

inhibition of MCP-1 release by HSCMCs (Siglec-9 co-crosslinked with FcεRI by a secondary antibody): 46.5% | percentage of surface Siglec-9 signal lost (HSCMCs, 24 h, delayed secondary staining): 30% | percentage of surface Siglec-9 signal lost (LAD2 cells, 1 h, delayed secondary staining): 30%
Substance: mouse anti-human Siglec-9 monoclonal antibody (clone 191240, R&D Systems)
